Measurements as given in the domain aggregation screens of Martell et al. (2025).

Test: soluble fraction after stress (log2 fold change); higher = more stays soluble; pooled small domains, quantitative proteomics
Conditions: stress: pH 4
In short: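 Custom libraries of small protein domains were pooled and measured with high-throughput quantitative proteomics after pH 4 stress. The read-out is the fold change in the amount of each domain that stays soluble after the acid stress, taken as a measure of aggregation propensity. Fold changes are on a log2 scale, and higher values mean more of the domain stayed soluble.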

| Sequence | soluble fraction (log2) |
| --- | --- |
| HMKGLDAAVVDLFKSKGASIVFAGNRLSLSGEVADQATKDELLAKAKAILASLGASVSLDDKLMVKGAKAS | 0.175 |
| HMQGYELKMYVTPDTKYSVAVYDAKNEMVSYTMGFSAKAPFGQEGEVLETVKLEFDKLAVGNYELKYWI | -0.0121 |
| HMNSPSKVIDISQLRKGMFVQLDLGWMSHPFAVGSFKVSTDEQIQTLRGLGLSEVRYIPEKSDPA | -0.896 |
| HMRLHSSGEDYLKAIFILEAQHSSVRSVEVAEYMNVSKASVSHAVALLKKNGFLKMNQDYDLTER | -0.906 |
| HMSNSMISKDKAMSIALAKVSGATSSNIYIELEKDDGRYTYEGEINFNNKEYEFEIDAYTGNILKWEVDSI | -0.0257 |
| HMSLDAAAVASKLIKRLSKSPGRRFALDDLAVDVGLPHEQGRPLVRSALELLVRTQQAVEGPPNVFRLFF | -0.17 |
| HMISVTNRTGTGLNDVKVEVFPVGRQMVFSATVFRVESEATNRFSLGELRGSDGTPFNQRVHRPESI | -0.07 |
| HMPLDYNELRSISPKAARQAILQILAANKGNVSATAKLLGVSRKTVYKAMHKKASGNLDDTSRAPK | 0.13 |
| HMQMRKENKILVTDIGEIDEVKVIFDDDNKPYLYSYNGEDEFYRPDETYKFFDNKEQAEEYVREN | -0.891 |
| HMSPSDLSAEAQKVYALLDGRELSFDTLVEESGFDTGSLLAILMRLEMKMLVEHGADQVYRRSG | -0.98 |
| HMIPEILNGYTKWGDDEPFEDHAGPFYMKMMPSTGRHLSAFIPEQRHMNGGGFLHGGMLMSFADYALFVI | -0.491 |
| HMEGSVTVMVNGESVTMTGKQNYIFVDVFDWYSFDLSAGKGRAIATLVNGKEAEFSQPLANGDNIELYWKE | -1.42 |
| HMDNTFEEVKEKLLDLLKERPLTPAEVSKRMEEDKNILAQVIQYLLEEEIIKTEDGMLSKVIG | -0.0649 |
| HMAPNVEENSKLIGEIGMTLTPLRPSGIATINNRRVDVVSNGDFIDQDERVMVKRVQGARVVVIPV | 0.1 |
| HMGSTVRIVVPAADIPAYKDIQPSDLEYREVPKDEISEDAVTDPQEVINKYSTSPLYAGWPINKNIIET | -0.202 |
| HMQAVDPLELRAGDFVVHEQHGIGRYVEMVQRTIGGITREYLVIEYAPAKRGQPNDRVFVPTDTLEQVS | -0.579 |
| HMVPSTAVIFTELVSMRSEPATKSPVTHQLTKGTAITINEEKDGWYQVTDQTGNSGWIVKWAVKPTYFTNP | 0.31 |
| HMEPLVSKVFQVSYQKTADLVALIKSEDSKLLSARGTLISDERTSQIFVQDTPTRLERISMIVNGL | -0.895 |
| HMPAERLSMRKIYEILRLKYGHGLSNREVALSVSVSRSTVADYLLRAQAAGLSWPLPDGLDETGLEQRLFP | -0.572 |
| HMAGWMPGGTNPAEPGRFAVLMDVDDSDAYKHMFLRWNGHAWEFERTRVLVKMEPSWWMRLPDDPEKP | -0.27 |
| HMNQIFAPMPGLVLEVKLSEGDVVAEGESAIILEAMKMENIIKSPINGIVKKVHVKKGQTIEKNTLIISFK | -1.06 |
| HMSASLPAAVEDPDLPYRVGAKLRHARWGEGLLVGIQREGSDVIATVHFASVGRKRLSLQYAHLEE | -0.785 |
| HMEDVLVTQIIQLKHVDANDMKTLFTPLLSRGSSQLLAYPQSNVLIITDTRSNIKKITEILDIIDKS | -0.838 |
| HMGLYPYSGTPADNQEANERRIFDIYSTHLERIFSDFSGATLRTKRLVLRLMQELVHSDPVRMAGILDEL | 0.1 |
| HMKMATITKRTNPSGAVVYRAQVRVKREGYPPYSESRTFSKKSLATEWAKRREFEIETNPDLLFN | 0.0738 |
| HMAEMLENQLKHAKSKQEANEYIAAAIGGVSDDDPDKEYLVAAYNEISKEFHHSSAYHRLPDT | ≥ 0.43 |
| HMLDQAVPVFETPKYAVSYIQNRLVEMKAASPEEAASRFYESISESERRGLFEALLIKEAEES | -0.821 |
| HMRVGADLTQRERELLALMAQGMSNQEIAKRLEIAVPTVKFHITNILDKLQVGNRTEAVIAALEHKLVP | -0.767 |

| Sequence | soluble fraction (log2) |
| --- | --- |
| HMSVLDEVRKLSFHQRNAVFLFYFEGYSMKEIAQIFHVKEGTVSSWLTRARKQLRKQMEEEVLYDESLP | -0.0883 |
| HMSMTVHGALRLLQLPTIADRPYTLKEIREAYREQAQNHHPDAGGSADAMRRLNEAYQFLKERYRQA | -0.0331 |
| HMLPGKEIPLPEFLREAFARNEPALENFQNLAPSYRRQYILWITSAKTPETVQKRISESIGLLKENRKLGM | -0.0786 |
| HMDGRIRFRHAALHDPDVAARLHDYLTTSLPGVRSARVNSQTGSLLLEYDPEVLDRSTLLDLAARAESLL | -1.06 |
| HMDAEWRTLTLAPEQHQQRLDRALADSLPEFSRSYVQQLIDTGMVRVNGVLAAKSAQRVKALDQVQVELR | -0.186 |
| HMSAQQTFLRDAMRRLNMTRDSFAERIGVRRRALDTWLLPEDSSEYRTMPSIVEKFVGEILGREA | 0.112 |
| HMASVRPVAPPDPKTHTRLTYRIRRGDTLERIGRRYRVSIAEIQAWNTLRDPGDILAGQRLVIWIPTS | 0.117 |
| HMFSGVQLGQAISEAIKRKNVSQKEVADHFGVKQPSVSGWIKNGRIDKKHLDKLIDYFSDVVTPSHFGIE | 0.241 |
| HMFTSVDVAPDLRTAKVFYSVLGRKKSDKEINIAINQKRKAFKKFMGPELHLKNIPDLHFYYD | 0.115 |
| HMEGLDDKTKIILFAGDKKEQEYSLADLKSKLNITENLTESELIKLLEKQGYVLDVNANNEFMFKKD | 0.22 |
| HMNKMIIELGEKLKALRTENHLRQDQVARLVNVEKSSISMYETGMRQPSYTTLVRLADVFNVTTDYLLGRK | 0.307 |
| HMKIDLTPQEEKIYSVLETELTLDEIIMKTSIKAGEALAILMDLELKKLVASVAGGKYRRKA | 0.157 |
| HMAHYYVRNGYYYYQRRIPLDLRKFYSGANIKASLKTKDPAIAALFVAKFDRQYDAEFAQRRLNPD | -0.277 |
| HMKKVTMQDIANILNISRVTVWKVLNNQPGVSKQLRDQILLTAKETGYLKPGQEAEAYLEENNIYFEG | -0.344 |
| HMDAAYVYVIGTRVNQRAGPSTSNAVMGVLSEGTRVETLRDEGQWTQIRSNFGTGWMSSSFLSSVAP | 0.124 |
| HMEKPTEITLSNRVSVQELAEKMYVSETDIIRTLFLDGRIININQVLDIDTAIRVGEQLGIKIKII | -1.49 |
| HMISAADLQTYLKGMDYPAGREDLVAHAQRNNAPESVITILQGFSDRTYRSAAEVSEEFGRE | -0.371 |
| HMEAKSSTKALLDVVLGRNGVSTANVAKSLNISVQNASTRLKKLSSEGVIMRSEVSSPTGGIEFIYS | 0.22 |
| HMGEKPTEITLSNAISVQELAEKLYVSETDIIRTLFLDGIIVNINQVLDLETAVKVGDQLGVTITIVE | -1.8 |
| HMQENKVLEGKVLEKKKKKVFVDLSPFGVGVIRGVNYLEAKNELKDIEEGDNIKVRVLEIDNENGFIELAL | -1.13 |
| HMGAYPENSLLKERGQSAVYLIQENRKRLFFNAEAFLINGYNWKDIQVVDDLSKILTGKVIYAK | -1.48 |
| HMKDHKSKWMAKTELDSIAKNLSKKHAISLDYEEDGTRFYAGGQSPLGIGRLFTVFVAPRNGHWSDQLR | -0.0435 |
| HMTHPAHLARIGALIRSARQHEGLTQAQLAELLGTSQSAIHRIEQGGQNITLDMLTRISAALDSEIVTIG | -1 |
| HMGGYVVVGDKDGFWSVVSTPVSKAKAEELLKDTTFPKGEKGKIVSVAEAMSHKKVIGKEYLESGGT | 0.0926 |
| HMARPLLSPREQDVLALIARGFSYSEVARLQAVTVHTIRTHIRNLYAKLSVHSKTEAVFEATRMGLLP | -0.569 |
| HMGGTATDYYNQGRTAYDVGDYNGALMNFQEAVRLDPRYGEAYYGLGKAYEALNMQNQALDAYLSAI | -1.46 |
| HMRGWGTVKRRTPKSGRYRASYIGPDGKRYAADHTYAAKVDADAWLSSERALITAGVWTPPTDRVT | -0.0591 |
